# Molecular target: TF-mCCP1 (maize (inbred line B73))
# Sequence (Q10716 137-371): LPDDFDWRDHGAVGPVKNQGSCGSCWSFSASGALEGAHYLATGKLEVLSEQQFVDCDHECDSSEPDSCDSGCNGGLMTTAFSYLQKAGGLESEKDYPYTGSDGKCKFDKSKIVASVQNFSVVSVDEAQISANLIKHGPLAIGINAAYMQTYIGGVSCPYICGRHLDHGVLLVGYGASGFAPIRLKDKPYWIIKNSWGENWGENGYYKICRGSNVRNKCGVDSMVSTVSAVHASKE
substance,measurement,value
GST-NIa-Pro (enzyme),"proteolytic activity of recombinant mCCP1 (TF tag removed) on a fluorescein-labeled casein substrate after pre-treatment with 0.5 μM GST-NIa-Pro, against GST",72 % decrease

# Reference: paper PMC10965072
